Substitutions are numbered along the chain they refer to. Numbers in names are those of the source. Where two headings read alike, the source gives them in different places. One block for each molecule: values may come before it. Bridges are numbered along the chain shown (N, C = ends). Where no end group is shown, it is not given here.
What was measured:
in vivo [1] = conditions: rat, plasma, sc, 2.18 mg/kg/day
Excerpt: At the end of designated infusion phase, blood samples are collected to determine plasma concentration and the infusion pump is removed.

in vivo [2] = conditions: rat, plasma, sc
Excerpt: (§2) On Day 4, blood samples are collected to determine plasma concentration and the infusion pump is removed.

[3] = Plasma pharmacokinetics in rats (toxicology studies); conditions: rats
Protocol: (§1) Example 11 is administered in a single 3 mg/kg dose to male and female monkeys by SC bolus injection.

[4] = Day 4 (96 hours), steady state
Excerpt: as §2

[5] = Plasma pharmacokinetics in monkeys (toxicology studies); conditions: cynomolgus monkey, in vivo, sc
Protocol: as §1

[6] = target: T1, HER4 receptor extracellular domain (ECD) (Homo sapiens, UniProt Q15303); assay: HER4/NRG-Fc binding assay (ELISA) for screening NRG4 variants
T1 construct: C-terminal His-tagged HER4 receptor extracellular domain (ECD) construct
T1 sequence (Q15303 26-651 limits assumed): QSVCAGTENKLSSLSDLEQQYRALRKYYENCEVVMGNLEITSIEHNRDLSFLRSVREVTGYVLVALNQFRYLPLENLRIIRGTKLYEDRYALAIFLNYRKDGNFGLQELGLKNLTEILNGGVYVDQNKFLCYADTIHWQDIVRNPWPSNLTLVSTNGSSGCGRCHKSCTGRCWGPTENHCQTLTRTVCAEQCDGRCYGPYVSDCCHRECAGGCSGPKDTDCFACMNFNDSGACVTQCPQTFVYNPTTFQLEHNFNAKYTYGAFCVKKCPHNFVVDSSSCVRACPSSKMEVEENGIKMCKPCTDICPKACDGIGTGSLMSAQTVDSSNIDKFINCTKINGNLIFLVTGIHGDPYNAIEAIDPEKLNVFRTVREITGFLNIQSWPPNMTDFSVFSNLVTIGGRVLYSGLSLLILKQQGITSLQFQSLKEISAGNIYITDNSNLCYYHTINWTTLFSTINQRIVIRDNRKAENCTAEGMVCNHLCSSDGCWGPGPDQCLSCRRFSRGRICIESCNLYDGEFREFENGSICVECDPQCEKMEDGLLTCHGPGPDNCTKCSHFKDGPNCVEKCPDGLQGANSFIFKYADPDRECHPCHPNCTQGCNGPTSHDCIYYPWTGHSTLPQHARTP
Protocol: A binding assay is utilized to perform high-throughput screening of NRG4 variant Fc fusion proteins to HER4 receptor, to identify affinity-driven variants with the potential to increase receptor activation and signaling. ELISA plates are coated with an anti-His tag antibody at 2 μg/ml in PBS to facilitate the standardized capture of a C-terminal His-tagged HER4 receptor extracellular domain (ECD) construct after blocking the plate with 1% BSA/PBS/0.1% Tween 20 (HER4 ECD at 5 μg/ml). Saturating amounts of unpurified NRG4-Fc variants in expression media (Starting at 10 μg/ml with serial dilutions in 1% BSA/PBS/0.1% Tween 20) are incubated with the captured receptor for 1 hour. After washing, bound variant NRG4-Fc is detected colorimetrically with an anti-human Fc-specific alkaline phosphatase secondary detection reagent to quantitate binding. Incubation times of variant binding to receptor or durations of the subsequent wash steps are varied to further identify binding variants driven by affinity on-rate and off-rate, respectively.

human HER2 and HER4 = target: T2, human HER2 and HER4 (Homo sapiens, UniProt Q15303); assay: Screening by human HER2-HER4 mediated ERK 1/2 phosphorylation in CHO-hHER2-hHER4 (clone 1H6) cells; assay type: cell-based; conditions: Table 5; Fc variants as 293F supernatants; Examples average of two replicates ± standard deviation
T2 construct: expressed in transfected cells
Protocol: A cell based assay utilizing CHO-K1 cells overexpressing human or rat HER receptors is used to determine activity of NRG4 compounds. CHO-K1 cells (ATCC) are grown in DMEM-F12 3:1 with 5% FBS with 20 mM HEPES, 40 μg/mL L-Proline, lx antibiotics and were split 1:5 every 2-3 days with TripLE Express (Gibco). Cells are transfected with plasmid DNA encoding HER receptors in pairs (hHER2-3, hHER2-4, rHER2-3 and rHER2-4) with Fugene 6 (Promega) according to the manufacturer's instructions. […] Transfected cells are selected with Puromycin (12 ug/ml) and Hygromycin (1 mg/ml) for 3-4 weeks and clonal lines are obtained by limited dilution cloning into 96 well plates. Clonal lines are selected by appropriate gene expression of HER2, HER3 or HER4 by Taqman method. Lines with appropriate receptor expression are confirmed by NRG1 induced phospho-ERK 1/2 responses. Clones are grown up, harvested, aliquoted into cryovials and then frozen under liquid nitrogen for long-term storage.
A phospho-ERK1/2 activity assay is used to determine potencies of NRG4 compounds. The potency of Examples 1-8 and 10 as compared to WT human NRG1 and/or human NRG4 are analyzed in studies measuring stimulation of human HER2-HER4 mediated ERK 1/2 phosphorylation. This assay comprises a CHO-K1 stable line expressing human HER2 and HER4. CHO-hHER2-hHER4 (clone 1H6) cells are routinely cultured in DMEM: F12(3:1), 5% FBS, 40 μg/mL L-Proline, 10 μg/mL puromycin and 1 mg/mL hygromycin at 37° C., 5% CO2. Cells are washed twice with 1×PBS, dissociated with 0.05% trypsin/[…] EDTA and collected by centrifugation at 300×g for 10 m. Cells are re-suspended in maintenance media. 20,000 cells/well, in 30 μL, are seeded into 384 well Poly-D-Lysine cell culture plates (Greiner, Cat No. 781946). Plates are covered with a manufacturer's lid and moved to a 37° C. tissue culture incubator at 5% CO^2, 80%+ humidity and allowed to adhere. After 24 h, media are removed from the plates and replaced with 30 μL serum-free starvation media (Low glucose DMEM with 0.1% BSA) using a Biomek FX liquid handler. Plates are returned to the incubator for 24 h.
hFcNRG4 variants, transiently expressed as 293F supernatants, are prepared in starvation media in a clear 384W plate (Greiner, cat no. 781185) as a 4pt 1:8 serial dilution (dose range averaged between 250 pM to 140000 pM). Media are removed from the cell culture plates and the 30 uL/well prepared variants are stamped into the plates using a Biomek FX liquid handler. Plates are sealed with a foil seal and stimulated for 15 minutes at room temperature on an orbital shaker. Cells are then washed once with 50 uL cold PBS. 30 uL lysis buffer is added to the cells and oscillated for 10 m at RT on an orbital shaker.
Detection of phosphorylation of ERR 1/2 is performed with either an AlphaScreen SureFire phospho-ERK1/2 kit (T202/Y204) (Perkin Elmer, catalog no. TGRES) or an AlphaLISA® SureFire® Ultra™ p ERK1/2 assay kit together with the AlphaScreen Protein. A IgG Detection Kit (Protein-A) (PerkinElmer, catalogue no. 6760617). After lysis of the CHO-K1 cells. 4 μL lysate is transferred to a 384W Alpha Proxiplate (Perkin Elmer, cat no, 6008280) with a 384W Biomek FX. 4 uL positive and negative lysates (Perkin Elmer, TGRES-L) are added to available wells as controls. 5 uL/well acceptor mix (containing anti-phoso-Thr202/Tyr204 antibodies and Protein A conjugated acceptor beads) is added to the plate with a Forumlatrix Mantis. The plate is sealed, spun down for 1 min at 300×g and incubated for 2 hr at room temperature on an orbital shaker. 2 μL/well donor mix (containing strepavidin coated donor beads and biotinylated antibodies to a distal ERK1/2 epitope) is dispensed by Mantis. The plate is sealed, spun down for 1 min at 300×g and incubated for 2 hr at room temperature on an orbital shaker before reading on the Perkin Elmer Envision 2103 Multilabel Reader (HIS Alpha mode, excitation time: 40 ms, total measurement time: 130 ms). […]

Molecule: H-GGGGSGHEEPCGPSHKSFCLNGGLCYQIPTIPSPFCRCVENYTGARCEKVFL (disulfide 11-25, 19-36, 38-47 (inferred)) [Example 9]
level at time molar at 48 h (in vivo [1]): 40.1 nM
level at time molar at 72 h (in vivo [1]): 47.3 nM
level at time molar at 96 h (in vivo [1]): 31.4 nM
level at time molar at 96 h (in vivo [2]; 0.22 mg/kg/day): 2.59 nM
level at time molar at 96 h (in vivo [2]; 0.73 mg/kg/day): 9.94 nM
half-life after SC administration [3]: less than an hour
Exposure in rat plasma, Mean ([4]; 2.18 mg/kg/day SC infusion): 29.62 nM
Exposure in rat plasma, Mean ([4]; 7.28 mg/kg/day SC infusion): 72.24 nM
half-life [5]: < 5 h

O.D. 405, binding to HER4 extracellular domain ([6]; Dose # 1: Example 1 10.65, WT NRG1 10, WT NRG4 17 μg/mL): 1.485
O.D. 405, binding to HER4 extracellular domain ([6]; Dose # 2: Example 1 5.325, WT NRG1 5, WT NRG4 8.5 μg/mL): 1.438
O.D. 405, binding to HER4 extracellular domain ([6]; Dose # 3: Example 1 2.6625, WT NRG1 2.5, WT NRG4 4.25 μg/mL): 1.4
O.D. 405, binding to HER4 extracellular domain ([6]; Dose # 4: Example 1 1.33125, WT NRG1 1.25, WT NRG4 2.125 μg/mL): 1.332
O.D. 405, binding to HER4 extracellular domain ([6]; Dose # 5: Example 1 0.665625, WT NRG1 0.625, WT NRG4 1.0625 μg/mL): 1.217
O.D. 405, binding to HER4 extracellular domain ([6]; Dose # 6: Example 1 0.332813, WT NRG1 0.3125, WT NRG4 0.53125 μg/mL): 1.081
O.D. 405, binding to HER4 extracellular domain ([6]; Dose # 7: Example 1 0.166406, WT NRG1 0.15625, WT NRG4 0.265625 μg/mL): 0.865
O.D. 405, binding to HER4 extracellular domain ([6]; Dose # 8: Example 1 0.083203, WT NRG1 0.078125, WT NRG4 0.132813 μg/mL): 0.607
O.D. 405, binding to HER4 extracellular domain ([6]; Dose # 9: Example 1 0.041602, WT NRG1 0.039063, WT NRG4 0.066406 μg/mL): 0.404
O.D. 405, binding to HER4 extracellular domain ([6]; Dose # 10: Example 1 0.020801, WT NRG1 0.019531, WT NRG4 0.033203 μg/mL): 0.235
O.D. 405, binding to HER4 extracellular domain ([6]; Dose # 11: Example 1 0.0104, WT NRG1 0.009766, WT NRG4 0.016602 μg/mL): 0.136
O.D. 405, binding to HER4 extracellular domain ([6]; Dose # 12: Example 1 0.0052, WT NRG1 0.004883, WT NRG4 0.008301 μg/mL): 0.096
EC50 (human HER2 and HER4): 0.77 ± 0.16 nM
B1: Example 1: NRG4 D1G, (GGGGS)3 linker, SEQ ID NO: 10, fused to IgG Fc dimer SEQ ID NO: 6 and 7 (protein)
chain 1: GGGGSGGGGSGGGGSGHEEPCGPSHKSFCLNGGLCYVIPTIPSPFCRCVENYTGARCEEVFL
chain 2: ECPPCPAPPVAGPSVFLFPPKPKDTLMISRTPEVTCVVVDVSHEDPEVQFNWYVDGVEVHNAKTKPREEQFNSTFRVVSVLTVVHQDWLNGKEYKCKVSNKGLPAPIEKTISKTKGQPREPQVYTLPPSREEMTKNQVSLWCLVKGFYPSDIAVEWESNGQPENNYKTTPPVLDSDGSFFLYSKLTVDKSRWQQGNVFSCSVMHEALHNHYTQKSLSLSPG
chain 3: B1 chain 2 with W141S, L143A, Y182V
